In patent publication US20210230570:

The proteins below were run against Factor X (FX), P00742.
Chain of Factor X (FX), P00742 (P00742 whole entry, looked up): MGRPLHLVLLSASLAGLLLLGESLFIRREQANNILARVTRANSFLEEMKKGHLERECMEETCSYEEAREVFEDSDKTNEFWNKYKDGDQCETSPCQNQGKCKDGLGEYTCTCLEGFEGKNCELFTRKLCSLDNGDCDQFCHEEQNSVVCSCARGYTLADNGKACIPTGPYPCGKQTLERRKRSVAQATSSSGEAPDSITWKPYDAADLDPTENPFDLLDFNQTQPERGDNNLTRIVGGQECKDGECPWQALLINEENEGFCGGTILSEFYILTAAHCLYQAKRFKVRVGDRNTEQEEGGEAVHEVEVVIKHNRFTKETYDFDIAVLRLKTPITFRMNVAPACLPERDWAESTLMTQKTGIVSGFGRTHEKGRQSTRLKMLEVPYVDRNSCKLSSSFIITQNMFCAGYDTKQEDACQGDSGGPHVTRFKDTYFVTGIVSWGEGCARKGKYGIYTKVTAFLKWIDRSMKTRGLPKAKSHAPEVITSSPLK

Protein	kcat [s⁻¹]
FIXa-Y155F/K228N/K247N/N249S/R318Y/R338E/T343R/R403E/E410N (protein) chain 1: YNSGKLEEFVQGNLERECMEEKCSFEEAREVFENTERTTEFWKQYVDGDQCESNPCLNGGSCKDDINSYECWCPFGFEGKNCELDVTCNIKNGRCEQFCKNSADNKVVCSCTEGYRLAENQKSCEPAVPFPCGRVSVSQTSKLTR chain 2: VVGGEDAKPGQFPWQVVLNGKVDAFCGGSIVNEKWIVTAAHCVETGVNITVVAGEHNIEETEHTEQNRSVIRIIPHHNYNAAINKYNHDIALLELDEPLVLNSYVTPICIADKEYTNIFLKFGSGYVSGWGRVFHKGYSALVLQYLRVPLVDRATCLESTKFRIYNNMFCAGFHEGGRDSCQGDSGGPHVTEVEGTSFLTGIISWGEECAMKGKYGIYTKVSEYVNWIKNKTKLT	9.4
FIXa-Y155F/K247N/N249S/T343R/R403E (protein) chain 1: YNSGKLEEFVQGNLERECMEEKCSFEEAREVFENTERTTEFWKQYVDGDQCESNPCLNGGSCKDDINSYECWCPFGFEGKNCELDVTCNIKNGRCEQFCKNSADNKVVCSCTEGYRLAENQKSCEPAVPFPCGRVSVSQTSKLTR chain 2: VVGGEDAKPGQFPWQVVLNGKVDAFCGGSIVNEKWIVTAAHCVETGVKITVVAGEHNIEETEHTEQNRSVIRIIPHHNYNAAINKYNHDIALLELDEPLVLNSYVTPICIADKEYTNIFLKFGSGYVSGWGRVFHKGRSALVLQYLRVPLVDRATCLRSTKFRIYNNMFCAGFHEGGRDSCQGDSGGPHVTEVEGTSFLTGIISWGEECAMKGKYGIYTKVSEYVNWIKEKTKLT	4.7
FIXa-Y155F/K247N/N249S/R318Y/T343R (protein) chain 1: YNSGKLEEFVQGNLERECMEEKCSFEEAREVFENTERTTEFWKQYVDGDQCESNPCLNGGSCKDDINSYECWCPFGFEGKNCELDVTCNIKNGRCEQFCKNSADNKVVCSCTEGYRLAENQKSCEPAVPFPCGRVSVSQTSKLTR chain 2: VVGGEDAKPGQFPWQVVLNGKVDAFCGGSIVNEKWIVTAAHCVETGVKITVVAGEHNIEETEHTEQNRSVIRIIPHHNYNAAINKYNHDIALLELDEPLVLNSYVTPICIADKEYTNIFLKFGSGYVSGWGRVFHKGYSALVLQYLRVPLVDRATCLRSTKFRIYNNMFCAGFHEGGRDSCQGDSGGPHVTEVEGTSFLTGIISWGEECAMKGKYGIYTKVSRYVNWIKEKTKLT	10.3
FIXa-Y155F/K247N/N249S/R318Y/R338E (protein) chain 1: YNSGKLEEFVQGNLERECMEEKCSFEEAREVFENTERTTEFWKQYVDGDQCESNPCLNGGSCKDDINSYECWCPFGFEGKNCELDVTCNIKNGRCEQFCKNSADNKVVCSCTEGYRLAENQKSCEPAVPFPCGRVSVSQTSKLTR chain 2: VVGGEDAKPGQFPWQVVLNGKVDAFCGGSIVNEKWIVTAAHCVETGVKITVVAGEHNIEETEHTEQNRSVIRIIPHHNYNAAINKYNHDIALLELDEPLVLNSYVTPICIADKEYTNIFLKFGSGYVSGWGRVFHKGYSALVLQYLRVPLVDRATCLESTKFTIYNNMFCAGFHEGGRDSCQGDSGGPHVTEVEGTSFLTGIISWGEECAMKGKYGIYTKVSRYVNWIKEKTKLT	7.5
FIXa-K247N/N249S/R338E/T343R/R403E/E410N (protein) chain 1: YNSGKLEEFVQGNLERECMEEKCSFEEAREVFENTERTTEFWKQYVDGDQCESNPCLNGGSCKDDINSYECWCPFGFEGKNCELDVTCNIKNGRCEQFCKNSADNKVVCSCTEGYRLAENQKSCEPAVPFPCGRVSVSQTSKLTR chain 2: VVGGEDAKPGQFPWQVVLNGKVDAFCGGSIVNEKWIVTAAHCVETGVKITVVAGEHNIEETEHTEQNRSVIRIIPHHNYNAAINKYNHDIALLELDEPLVLNSYVTPICIADKEYTNIFLKFGSGYVSGWGRVFHKGRSALVLQYLRVPLVDRATCLESTKFRIYNNMFCAGFHEGGRDSCQGDSGGPHVTEVEGTSFLTGIISWGEECAMKGKYGIYTKVSEYVNWIKNKTKLT	10.8
FIXa-Y155F/R338E/T343R/R403E/E410S (protein) chain 1: YNSGKLEEFVQGNLERECMEEKCSFEEAREVFENTERTTEFWKQYVDGDQCESNPCLNGGSCKDDINSYECWCPFGFEGKNCELDVTCNIKNGRCEQFCKNSADNKVVCSCTEGYRLAENQKSCEPAVPFPCGRVSVSQTSKLTR chain 2: VVGGEDAKPGQFPWQVVLNGKVDAFCGGSIVNEKWIVTAAHCVETGVKITVVAGEHNIEETEHTEQKRNVIRIIPHHNYNAAINKYNHDIALLELDEPLVLNSYVTPICIADKEYTNIFLKFGSGYVSGWGRVFHKGRSALVLQYLRVPLVDRATCLESTKFRIYNNMFCAGFHEGGRDSCQGDSGGPHVTEVEGTSFLTGIISWGEECAMKGKYGIYTKVSEYVNWIKSKTKLT	6.8
FIXa-Y155F/K247N/N249S/R318Y/R338E/T343R/R403E (protein) chain 1: YNSGKLEEFVQGNLERECMEEKCSFEEAREVFENTERTTEFWKQYVDGDQCESNPCLNGGSCKDDINSYECWCPFGFEGKNCELDVTCNIKNGRCEQFCKNSADNKVVCSCTEGYRLAENQKSCEPAVPFPCGRVSVSQTSKLTR chain 2: VVGGEDAKPGQFPWQVVLNGKVDAFCGGSIVNEKWIVTAAHCVETGVKITVVAGEHNIEETEHTEQNRSVIRIIPHHNYNAAINKYNHDIALLELDEPLVLNSYVTPICIADKEYTNIFLKFGSGYVSGWGRVFHKGYSALVLQYLRVPLVDRATCLESTKFRIYNNMFCAGFHEGGRDSCQGDSGGPHVTEVEGTSFLTGIISWGEECAMKGKYGIYTKVSEYVNWIKEKTKLT	10.6
FIXa-K247N/N249S/R318Y/R338E/T343R/R403E (protein) chain 1: YNSGKLEEFVQGNLERECMEEKCSFEEAREVFENTERTTEFWKQYVDGDQCESNPCLNGGSCKDDINSYECWCPFGFEGKNCELDVTCNIKNGRCEQFCKNSADNKVVCSCTEGYRLAENQKSCEPAVPFPCGRVSVSQTSKLTR chain 2: VVGGEDAKPGQFPWQVVLNGKVDAFCGGSIVNEKWIVTAAHCVETGVKITVVAGEHNIEETEHTEQNRSVIRIIPHHNYNAAINKYNHDIALLELDEPLVLNSYVTPICIADKEYTNIFLKFGSGYVSGWGRVFHKGYSALVLQYLRVPLVDRATCLESTKFRIYNNMFCAGFHEGGRDSCQGDSGGPHVTEVEGTSFLTGIISWGEECAMKGKYGIYTKVSEYVNWIKEKTKLT	9.2
FIXa-Y155F/K247N/N249S/R318Y/R403E (protein) chain 1: YNSGKLEEFVQGNLERECMEEKCSFEEAREVFENTERTTEFWKQYVDGDQCESNPCLNGGSCKDDINSYECWCPFGFEGKNCELDVTCNIKNGRCEQFCKNSADNKVVCSCTEGYRLAENQKSCEPAVPFPCGRVSVSQTSKLTR chain 2: VVGGEDAKPGQFPWQVVLNGKVDAFCGGSIVNEKWIVTAAHCVETGVKITVVAGEHNIEETEHTEQNRSVIRIIPHHNYNAAINKYNHDIALLELDEPLVLNSYVTPICIADKEYTNIFLKFGSGYVSGWGRVFHKGYSALVLQYLRVPLVDRATCLRSTKFTIYNNMFCAGFHEGGRDSCQGDSGGPHVTEVEGTSFLTGIISWGEECAMKGKYGIYTKVSEYVNWIKEKTKLT	1.7
FIXa-Y155F/I251S/R338E/T343R/R403E (protein) chain 1: YNSGKLEEFVQGNLERECMEEKCSFEEAREVFENTERTTEFWKQYVDGDQCESNPCLNGGSCKDDINSYECWCPFGFEGKNCELDVTCNIKNGRCEQFCKNSADNKVVCSCTEGYRLAENQKSCEPAVPFPCGRVSVSQTSKLTR chain 2: VVGGEDAKPGQFPWQVVLNGKVDAFCGGSIVNEKWIVTAAHCVETGVKITVVAGEHNIEETEHTEQKRNVSRIIPHHNYNAAINKYNHDIALLELDEPLVLNSYVTPICIADKEYTNIFLKFGSGYVSGWGRVFHKGRSALVLQYLRVPLVDRATCLESTKFRIYNNMFCAGFHEGGRDSCQGDSGGPHVTEVEGTSFLTGIISWGEECAMKGKYGIYTKVSEYVNWIKEKTKLT	5.9
FIXa-Y155F/K247N/N249S/R338E/T343R/R403E/E410N (protein) chain 1: YNSGKLEEFVQGNLERECMEEKCSFEEAREVFENTERTTEFWKQYVDGDQCESNPCLNGGSCKDDINSYECWCPFGFEGKNCELDVTCNIKNGRCEQFCKNSADNKVVCSCTEGYRLAENQKSCEPAVPFPCGRVSVSQTSKLTR chain 2: VVGGEDAKPGQFPWQVVLNGKVDAFCGGSIVNEKWIVTAAHCVETGVKITVVAGEHNIEETEHTEQNRSVIRIIPHHNYNAAINKYNHDIALLELDEPLVLNSYVTPICIADKEYTNIFLKFGSGYVSGWGRVFHKGRSALVLQYLRVPLVDRATCLESTKFRIYNNMFCAGFHEGGRDSCQGDSGGPHVTEVEGTSFLTGIISWGEECAMKGKYGIYTKVSEYVNWIKNKTKLT	9.8
FIXa-R318Y/R338E/T343R/R403E/E410S (protein) chain 1: YNSGKLEEFVQGNLERECMEEKCSFEEAREVFENTERTTEFWKQYVDGDQCESNPCLNGGSCKDDINSYECWCPFGFEGKNCELDVTCNIKNGRCEQFCKNSADNKVVCSCTEGYRLAENQKSCEPAVPFPCGRVSVSQTSKLTR chain 2: VVGGEDAKPGQFPWQVVLNGKVDAFCGGSIVNEKWIVTAAHCVETGVKITVVAGEHNIEETEHTEQKRNVIRIIPHHNYNAAINKYNHDIALLELDEPLVLNSYVTPICIADKEYTNIFLKFGSGYVSGWGRVFHKGYSALVLQYLRVPLVDRATCLESTKFRIYNNMFCAGFHEGGRDSCQGDSGGPHVTEVEGTSFLTGIISWGEECAMKGKYGIYTKVSEYVNWIKSKTKLT	7.6
FIXa-Y155F/R338E/T343R/R403E (protein) chain 1: YNSGKLEEFVQGNLERECMEEKCSFEEAREVFENTERTTEFWKQYVDGDQCESNPCLNGGSCKDDINSYECWCPFGFEGKNCELDVTCNIKNGRCEQFCKNSADNKVVCSCTEGYRLAENQKSCEPAVPFPCGRVSVSQTSKLTR chain 2: VVGGEDAKPGQFPWQVVLNGKVDAFCGGSIVNEKWIVTAAHCVETGVKITVVAGEHNIEETEHTEQKRNVIRIIPHHNYNAAINKYNHDIALLELDEPLVLNSYVTPICIADKEYTNIFLKFGSGYVSGWGRVFHKGRSALVLQYLRVPLVDRATCLESTKFRIYNNMFCAGFHEGGRDSCQGDSGGPHVTEVEGTSFLTGIISWGEECAMKGKYGIYTKVSEYVNWIKEKTKLT	5.2
FIXa-Y155F/N260S/R338E/T343R/R403E (protein) chain 1: YNSGKLEEFVQGNLERECMEEKCSFEEAREVFENTERTTEFWKQYVDGDQCESNPCLNGGSCKDDINSYECWCPFGFEGKNCELDVTCNIKNGRCEQFCKNSADNKVVCSCTEGYRLAENQKSCEPAVPFPCGRVSVSQTSKLTR chain 2: VVGGEDAKPGQFPWQVVLNGKVDAFCGGSIVNEKWIVTAAHCVETGVKITVVAGEHNIEETEHTEQKRNVIRIIPHHNYSAAINKYNHDIALLELDEPLVLNSYVTPICIADKEYTNIFLKFGSGYVSGWGRVFHKGRSALVLQYLRVPLVDRATCLESTKFRIYNNMFCAGFHEGGRDSCQGDSGGPHVTEVEGTSFLTGIISWGEECAMKGKYGIYTKVSEYVNWIKEKTKLT	6.4
FIXa-R338E/T343R/R403E (protein) chain 1: YNSGKLEEFVQGNLERECMEEKCSFEEAREVFENTERTTEFWKQYVDGDQCESNPCLNGGSCKDDINSYECWCPFGFEGKNCELDVTCNIKNGRCEQFCKNSADNKVVCSCTEGYRLAENQKSCEPAVPFPCGRVSVSQTSKLTR chain 2: VVGGEDAKPGQFPWQVVLNGKVDAFCGGSIVNEKWIVTAAHCVETGVKITVVAGEHNIEETEHTEQKRNVIRIIPHHNYNAAINKYNHDIALLELDEPLVLNSYVTPICIADKEYTNIFLKFGSGYVSGWGRVFHKGRSALVLQYLRVPLVDRATCLESTKFRIYNNMFCAGFHEGGRDSCQGDSGGPHVTEVEGTSFLTGIISWGEECAMKGKYGIYTKVSEYVNWIKEKTKLT	6.9
